Experimental data reported in US20240216557A1 (Memorial Sloan Kettering, published 2024).

T1: Recombinant Human DLL3 Protein (amino acids Ala27-Ala479, cat #9749-DL, R&D Systems) (human, UniProt Q9NYJ7 27-479)
T1 construct: Bought protein
T1 sequence: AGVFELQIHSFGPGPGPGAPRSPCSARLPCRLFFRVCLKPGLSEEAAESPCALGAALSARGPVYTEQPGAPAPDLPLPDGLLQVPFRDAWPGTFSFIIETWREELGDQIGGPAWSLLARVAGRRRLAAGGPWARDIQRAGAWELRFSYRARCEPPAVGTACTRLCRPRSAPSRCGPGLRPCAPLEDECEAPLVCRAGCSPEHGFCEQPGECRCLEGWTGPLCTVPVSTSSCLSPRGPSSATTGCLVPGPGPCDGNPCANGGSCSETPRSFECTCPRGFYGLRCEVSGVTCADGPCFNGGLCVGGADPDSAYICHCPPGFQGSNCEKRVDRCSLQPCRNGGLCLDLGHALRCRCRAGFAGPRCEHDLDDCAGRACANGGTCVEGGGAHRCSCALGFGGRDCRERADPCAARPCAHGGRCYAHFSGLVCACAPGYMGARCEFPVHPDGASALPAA

T2: hDLL3 (human, UniProt Q9NYJ7 27-479, limits assumed)
T2 construct: also called human DLL3
T2 sequence: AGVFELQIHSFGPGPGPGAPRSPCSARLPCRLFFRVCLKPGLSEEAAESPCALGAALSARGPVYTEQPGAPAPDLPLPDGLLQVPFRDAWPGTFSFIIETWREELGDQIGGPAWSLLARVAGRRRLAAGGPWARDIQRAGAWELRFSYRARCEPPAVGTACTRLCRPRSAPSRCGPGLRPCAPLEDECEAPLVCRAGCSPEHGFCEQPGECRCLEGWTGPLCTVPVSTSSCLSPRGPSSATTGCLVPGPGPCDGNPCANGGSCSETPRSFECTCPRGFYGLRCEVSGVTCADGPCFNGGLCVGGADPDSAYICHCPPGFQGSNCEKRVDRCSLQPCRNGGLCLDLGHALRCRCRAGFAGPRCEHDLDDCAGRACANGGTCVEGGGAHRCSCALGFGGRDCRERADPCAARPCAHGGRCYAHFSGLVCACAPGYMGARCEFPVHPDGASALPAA

T3: DLL3 on H82 xenograft tumor cells (UniProt Q9NYJ7 27-618, limits assumed)
T3 construct: whole, on cells; H82 is a human SCLC line by general knowledge
T3 sequence (looked up): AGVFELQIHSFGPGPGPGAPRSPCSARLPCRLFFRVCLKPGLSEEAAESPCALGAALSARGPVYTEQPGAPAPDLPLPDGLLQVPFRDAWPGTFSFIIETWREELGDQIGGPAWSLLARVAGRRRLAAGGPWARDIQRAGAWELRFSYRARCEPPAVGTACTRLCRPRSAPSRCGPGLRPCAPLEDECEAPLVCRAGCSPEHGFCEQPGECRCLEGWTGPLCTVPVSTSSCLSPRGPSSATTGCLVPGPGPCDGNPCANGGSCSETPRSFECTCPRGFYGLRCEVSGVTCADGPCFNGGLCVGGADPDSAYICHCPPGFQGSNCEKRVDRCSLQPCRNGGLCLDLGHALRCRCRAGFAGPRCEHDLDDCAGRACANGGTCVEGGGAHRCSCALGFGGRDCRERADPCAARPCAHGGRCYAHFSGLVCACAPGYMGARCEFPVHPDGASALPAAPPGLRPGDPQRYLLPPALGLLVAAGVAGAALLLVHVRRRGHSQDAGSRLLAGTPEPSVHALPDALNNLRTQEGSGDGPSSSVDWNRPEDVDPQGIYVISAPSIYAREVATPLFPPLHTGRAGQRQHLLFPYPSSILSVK


Assays:
[1] = molecular target: T1, Recombinant Human DLL3 Protein (amino …); experiment: BLI, Octet HTX, 25 C; mAb on anti-mouse Fc sensors, DLL3 as analyte from 200 nM
Method: The 23 purified monoclonal antibodies (5 μg/mL each) were loaded onto anti-mouse Fc sensors.

[2] = molecular target: hDLL4 (human, UniProt Q9NR61 27-524, limits assumed); experiment: ELISA; signal unit not stated
[3] = molecular target: T2, hDLL3; experiment: ELISA; signal unit not stated
[4] = molecular target: T2, hDLL3; experiment: method not stated (column 'Affinity hDLL3')
[5] = molecular target: T3, DLL3 on H82 xenograft tumor cells; experiment: immunoPET imaging of athymic mice bearing right flank subcutaneous H82 xenografts after tail vein injection of the Zr-89 labelled antibody; time point not printed on the sheet
Method: To ensure adequate binding to DLL3 in vivo, the three antibodies were first bioconjugated to p-SCN-Bn-DFO chelators and then radiolabeled with Zr-89 for injection via tail vein into athymic female mice bearing right flank subcutaneous H82 xenografts (250-300 Ci, 30 μg). ImmunoPET imaging was performed every 24 h until 120 h, when a terminal ex vivo biodistribution study was performed.

Chain of hDLL4 (Q9NR61 27-524 limits assumed): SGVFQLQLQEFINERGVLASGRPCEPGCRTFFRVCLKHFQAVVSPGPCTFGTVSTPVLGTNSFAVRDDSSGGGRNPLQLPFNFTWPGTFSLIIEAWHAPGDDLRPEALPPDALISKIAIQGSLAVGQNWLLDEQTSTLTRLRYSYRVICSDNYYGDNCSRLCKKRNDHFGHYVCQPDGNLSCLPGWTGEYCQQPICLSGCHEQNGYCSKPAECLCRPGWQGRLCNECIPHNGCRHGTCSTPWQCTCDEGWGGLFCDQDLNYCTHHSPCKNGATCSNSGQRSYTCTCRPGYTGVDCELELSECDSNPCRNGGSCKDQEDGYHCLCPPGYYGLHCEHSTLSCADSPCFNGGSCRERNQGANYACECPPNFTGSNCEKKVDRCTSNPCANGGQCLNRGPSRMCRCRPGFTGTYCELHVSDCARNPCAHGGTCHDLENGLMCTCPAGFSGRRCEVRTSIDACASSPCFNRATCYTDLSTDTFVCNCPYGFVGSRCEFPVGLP

Binder	Kd [1] [nM]	other results
F21 (antibody, V domains shown, Purified hybridoma monoclonal antibody; loaded on anti-mouse Fc sensors in BLI) VH: EVQLVESGGGLVQPGGSLRLSCAASGFTFSSYWMSWVRQAPGKGLEWVANIKQDGSEKYYVDSVKGRFTISRDNAKNSLYLQMNSLRAEDTAVYYCAREWLRFGGLVYWGQGTLVTVSS VL: not shown	6.12	–
G3 (antibody, V domains shown, Purified hybridoma monoclonal antibody; loaded on anti-mouse Fc sensors in BLI) VH: QVQLQESGPGLVKPSETLFLTCTVSGGSISSYYWTWIRQPAGKGLEWIGRIYTSGSTNYNPSLKSRVTMSVDTSKNQFSLKLSSVTAADTAVYYCAREDWESWTFDIWGQGTMVTVSS VL: not shown	0.908	–
F9 (antibody, V domains shown, also called 1F9) VH: QVQLVQSGAEVKKPGASVQVSCKASGYTFTSYYMHWVRQAPGQGLEWMGIINPSGGSTSYAQKFQGRVTMTRDTSTSTVYMELSSLRSEDTAVYYCARQGGAQWLVLAFDIWGQGTMVTVSS VL: EIVLTQSPGTLSLSPGERATLSCRASQSVSSYLAWYQQKPGQPPRLLIYGASSRATGIPDRFSGGGSGTDFTLTISRLEPEDFAVYYCQQYDSSPYTFGQGTKLEIK	3.01	–
G16 (antibody, V domains shown, Purified hybridoma monoclonal antibody; loaded on anti-mouse Fc sensors in BLI) VH: QVQLVQSGAEVKKPGASVQVSCKASGYTFTSYYMHWVRQAPGQGLEWMGIINPSGGSTSYAQKFQGRVTMTRDTSTSTVYMELSSLRSEDTAVYYCARQGGAQWLVLAFDIWGQGTMVTVSS VL: EIVLTQSPGTLSLSPGERATLSCRASQSVSSYLAWYQQKPGQAPRLLIYGASSRATGIPDRFSGGGSGTDFTLTISRLEPEDFAVYYCQQYGSSPYTFGQGTKLEIK	4.88	–
D8 (antibody, V domains shown, Purified hybridoma monoclonal antibody; loaded on anti-mouse Fc sensors in BLI) VH: QVQLVQSGAEVKKPGASVKVSCKASGYTFTTYYMHWVRQAPGQGLEWMGIINPSGGSTSYAQKFQGRVTMTRDTSTSTVYMELSSLRSEDTAVYYCARQGHYIGNYLDYWGQGTLVTVSS VL: not shown	0.438	–
C22 (antibody, V domains shown, Purified hybridoma monoclonal antibody; loaded on anti-mouse Fc sensors in BLI) VH: QVQLVQSGAEVKKPGASVKVSCKASGYTFTSYYMHWVRQAPGQGLEWMGIINPSGGSTSYAQKFQGRVTMTRDTSTSTVYMELSSLRSEDTAVYYCARVADIVGATFDYWGQGTLVTVSS VL: not shown	0.431	–
L12 (antibody, V domains shown, Purified hybridoma monoclonal antibody; loaded on anti-mouse Fc sensors in BLI) VH: QVQLVQSGAEVKKPGASVKVSCKASGYTFTSYYMHWVRQAPGQGLEWMGIINPSGGSRSYAQKFQGRVTMTRDTSTSTVYMELSSLRSEDTAVYYCARQLELLGNAFDIWGQGTMVTVSS VL: not shown	3.1	–
J23 (antibody, V domains shown, Purified hybridoma monoclonal antibody; loaded on anti-mouse Fc sensors in BLI) VH: QVQLVQSGAEVKKPGASVKVSCKASGYTFTSYYMHWVRQAPGQGLEWMGIINYSGGSKSYAQKFQGRVTMTRDTSTSTVYMELSSLRSEDTGVYYCARQGRYSGSYLDYWGQGTLVTVSS VL: not shown	0.998	–
M11 (antibody, V domains shown, Purified hybridoma monoclonal antibody; loaded on anti-mouse Fc sensors in BLI) VH: QVQLVQSGAEVKKPGASVKVSCKASGYTFTSYYIHWVRQAPGQGLEWMGIINPSGGSKSYAQKFQGRVTMTRDTSTGTVYMELSSLRSEDTAVYYCAGQLELLGNAFDIWGQGTMVTVSS VL: not shown	2.76	–
J8 (antibody, V domains shown) VH: QVHLVQSGAEVKKPGASVKVSCKASGYTFTIYYIHWVRQAPGQGLEWMGIINPSGGSTSYAQKFQGRVTMTRDTSTSTVYMELSSLRSEDTAVYYCSGNDYVDYVTTDYYGMDVWGQGTTVTVSS VL: DIQMTQSPSSLSASVGDRVTITCRASQGISNYLAWFQQKPGKAPKSLIYAASSLQSGVPSKFSGSGSGTDFTLTISSLQPEDFATYYCQQYNSSPYTFGQGTKLEIK	0.001	ELISA hDLL4 [2]: 0.085; ELISA hDLL3 [3]: 1.38; Kd [4]: < 0.001 nM
B2 (antibody, V domains shown) VH: QVQLVQSGAEVKKPGASVKVSCKASGYTFTSYYMHWVRQAPGQGLEWMGIINPSGGSTSYAQKFRGRVTMTRDTSTSTVYMELSSLRSEDTAVYYCARGDYDILTDYYYNMDVWGQGTTVTVSS VL: DIQMTQSPSAMSASVGDRVTITCRASQGISNYLAWFQQKPGKVPKRLIYAASSLQSGVPSRFSGSGSGTEFTLTISSLQPEDFATYYCLQHNSYPYTFGQGTKLEIK	1.46	ELISA hDLL4 [2]: 0.043; ELISA hDLL3 [3]: 1.21
O24 (antibody, V domains shown, the description prints the designation as '024' (zero); also called 024) VH: QVQLVQSGAEVKKPGASVKVSCKASGYTFTSYYLHWVRQAPGHGLEWMAIINPSGGSTSYAQKFLGRVTMTRDTSTNTVYMELSSLRSEDTAVYYCARERQQLDYYYFAMDVWGQGTTVTVSS VL: DIQMTQSPSSLSASVGDRVTITCRASQGISNYLAWFQQKPGKAPKSLIYAASSLQSGVPSKFSGSGSGTDFTLTISSLQPEDFATYYCQQYNSYPPTFGQGTKVEIK	1.28	–
E9 (antibody, V domains shown, Purified hybridoma monoclonal antibody (Ablexis AlivaMab Kappa mice); loaded on anti-mouse Fc sensors in BLI) VH: QVQLVQSGAEVKKPGASVKVSCKASGYTFTSYYMHWVRQAPGQGLEWMGVINSSGGSTSYAQKFQGRVTMTRDTSTSTVYMDLSSLRSEDTAVYYCARGYCTNGVYYDEDFDYWGQGTLVTVSS VL: DIQMTQSPSSLSASVGDRVTITCRASQGISHYLAWFQQKPGKAPTSLIYAASSLQSGVPSKFSGSGSGTDFTLTISSLQPEDFATYYCQQYNSYPLTFGGGTKVEIK	0.3	–
E23 (antibody, V domains shown, loaded on anti-mouse Fc sensors in BLI) VH: QVQLVQSGAEVRKPGASVKVSCKASGYTFTGYYMHWVRQAPGQGLEWMGWINSYSGGANYAQKFQDRVTMTRDTSVSTASMELSRLRSDDTAVYYCARDGSGWYGSYFDFWGQGTLVTVSS VL: DIVMTQTPLSSPVTLGQPASISCRSSQSLVHSDGNTYLSWLQQRPGQPPRLLIYKISNRFSGVPDRFSGSGAGTDFTLKISRVEAEDVGFYYCIQTTQFPLTFGGGTKVEIK	0.511	–
L22 (antibody, V domains shown) VH: EVQLLESGGGLVQPGGSLRLSCAASGFTFSSYAMGWVRQTPGKGLEWVSTISGRGGDTYYADSVKGRFTISRDNSKNTLYLQMNSLRAEDTAIYYCAKERGLGFDYWGQGTLVTVSS VL: DIVMTQTPLSLPVTPGEPASISCRSSQSLLDSDDGNTYLDWYLQKPGQSPQLLIYTLSYRASGVPDRFSGSGSGTDFTLKISRVEAEDVGVYYCMQHLEFPLTFGGGTKVEIK	3.55	ELISA hDLL4 [2]: 0.056; ELISA hDLL3 [3]: 1.64; Kd [4]: 1.46 nM
B22 (antibody, V domains shown, Purified hybridoma monoclonal antibody; loaded on anti-mouse Fc sensors in BLI) VH: EVQLVESGGGLVQPGGSLRLSCAASGFTFNNFWMSWVRQAPGKGLEWVANIKQDGSEKYYVDSVKGRFTISRDNAKNSLYLQMNSLRAEDTAVYYCARESYFDLWGRGTLVTVSS VL: QAVVTQESALTTSPGETVTLTCRSSTGAVTTSNYANWVQEKPDHLFTGLIGGTNNRAPGVPARFSGSLIGDKAALTITGAQTEDEAIYFCALWYSNRWVFGGGTKLTVL	1.84	–
[89Zr]Zr-DFO-A18 antibody (antibody, V domains shown, p-SCN-Bn-DFO chelator bioconjugated to the antibody (sites not given), radiolabeled with Zr-89, also called A18 (monoclonal IgG4, DFO-conjugated, Zr-89 labeled)) VH: QVTLRESGPALVKSTQTLTLTCTFSGFSLSTSGMCVSWIRQTPGKALEWLALIDWDDNKYYSTSLKTRLIISKDTSKNQVVLTMTNMEPVDTATYYCARIRGYSGSYDAFDIWGQGTMVTVSS VL: DIVMTQSPLSLPVTPGEPASISCRSSQSLLHSNGYNYLDWYLQKPGQSPHILLYLGSNRAPGVPDRFSGSGSGTDFTLKISRVEAEDVGVYYCMQALQTPFTFGPGTKVDIK	–	binding result [5]: binds
A18 (antibody, V domains shown, Purified hybridoma monoclonal antibody) VH: QVTLRESGPALVKSTQTLTLTCTFSGFSLSTSGMCVSWIRQTPGKALEWLALIDWDDNKYYSTSLKTRLIISKDTSKNQVVLTMTNMEPVDTATYYCARIRGYSGSYDAFDIWGQGTMVTVSS VL: DIVMTQSPLSLPVTPGEPASISCRSSQSLLHSNGYNYLDWYLQKPGQSPHILLYLGSNRAPGVPDRFSGSGSGTDFTLKISRVEAEDVGVYYCMQALQTPFTFGPGTKVDIK	0.236	–
P4 (antibody, V domains shown, Purified hybridoma monoclonal antibody; loaded on anti-mouse Fc sensors in BLI) VH: EVQLVESGGGLVKPGGSLRLSCAASGFTFSFYSMNWVRQAPGKGLEWVSSISSSSSYIYYADSVKGRFTISRDNAKNSLYLQMNSLRAEDTAVYYCARNYDFWRGAFDIWGQGTMVTVSS VL: not shown	6.5	–
